Like-named read-outs stand apart in the source and are kept apart here.

In the series the test system is TAL-PrA (GAL1 promoter TAL). To be noted: ChIP-qPCR.

Substance “AAATTAATCAGCGGTGAC (double strand) [REV7 similar site (ChrIX)]” had a binding signal of 0.77 fold vs ACT1.

In turn, “GAL1 promoter TAL target (ChrII 278829-278846)” had a binding signal (not enriched in glucose) of 6.14 fold vs ACT1.

“GGGGTAATTAAAATTTCT (double strand) [IQG1 similar site (ChrXVI)]”: the binding signal worked out at 0.76 fold vs ACT1.

As for “GGGGTAATTAATCATTTT (double strand) [SCC2 similar site (ChrIV)]”, the binding signal was 0.65 fold vs ACT1.

Take “GGGGTAATTAATGTAAAT (double strand) [IDP3 similar site (ChrXIV)]”: the binding signal stood at 0.94 fold vs ACT1.

For the substance “TTATACATTAATCAGCGA (double strand) [ENB1 similar site (ChrXV)]”, where the note is “GAL1 at least 4.6-fold better”, the binding signal turned out to be 1.34 fold vs ACT1.

Values taken from patent US20150338398.
